According to paper PMC3499403 (PLoS Neglected Tropical Diseases, 2012):

T1: Variant-specific Surface Glycoprotein (VSG) on live bloodstream form T. b. brucei AnTat1.1 (Trypanosoma brucei brucei AnTat1.1 (endogenous in the parasites)) (UniProt P06015)
T1 sequence: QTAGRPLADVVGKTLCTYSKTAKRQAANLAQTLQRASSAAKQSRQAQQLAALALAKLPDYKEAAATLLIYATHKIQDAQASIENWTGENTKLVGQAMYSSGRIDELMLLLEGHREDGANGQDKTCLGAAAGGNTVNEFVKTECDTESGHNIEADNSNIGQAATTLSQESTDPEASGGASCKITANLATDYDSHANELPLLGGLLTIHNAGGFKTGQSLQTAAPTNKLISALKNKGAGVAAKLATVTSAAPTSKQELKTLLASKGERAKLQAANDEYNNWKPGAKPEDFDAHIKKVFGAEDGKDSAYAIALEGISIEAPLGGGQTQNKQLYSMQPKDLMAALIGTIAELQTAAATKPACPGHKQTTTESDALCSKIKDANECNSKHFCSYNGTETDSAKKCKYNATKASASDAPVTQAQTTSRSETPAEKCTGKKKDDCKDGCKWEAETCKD

B1: Nb_An-R3.7 (VHH)
VHH: QVQLQESGGGLVQPGGSLRLSCEASGFILGYYTIGWIRQAPGKEREGVICITSAGGRTNYADSVKGRFTISRDNAKNTVYLQMNSLKPEDTAVYYCAADLINLCDSSWLRDGMNYWGKGTQVTVSS
notes: From the alpaca sVSG-immune library, cloned in pMES; source: E. coli WK6, purified (Ni-NTA, Superdex 75 gel filtration)
B2: Nb_An-R4.55 (VHH)
VHH: QVQLQESGGGLVQPGGSLRLSCEASGFILGYYTIGWIRQAPGKEREGVICITSAGGRTNYADSVKGRFTISRDNAKNTVYLQMNSLKPEDTAVYYCAADLINLCDSSWLQDGMNYWGKGTQVTVSS
notes: as for B1
B3: Nb_An-R4.80 (VHH)
VHH: QVQLQESGGGLVQPGGSLRLSCEASGFILGYYTIGWIRQAPGKEREGVICITSAGGRTNYADSVKGRFTISRDNAKNTVYLQMNSLKPEDTAVYYCAADLTNLCDSSWLRDGMNYWGKGTQVTVSS
notes: as for B1
B4: Nb_An-R3.92 (VHH)
VHH: QVQLQESGGGLVQAGGSLRLSCEASGFILGYYTIGWFRQAPGKEREGVLCISSAGGRTNYADSVKGRFTISRDNAKNTVYLQMNSLKPEDTAVYYCAADLINLCDSSWWRDGMNYWGKGTQVTVSS
notes: as for B1
B5: Nb_An-R4.29 (VHH)
VHH: QVQLQESGGGLVQPGGSLRLSCEASGFILGYYTIGWFRQAPGKEREGVSCINSSPGTTNYADSVKGRFTISRDNAKNTVYLQMNSLKPEDTAVYYCAADLINLCDSTWVRDGMNFWGKGTQVTVSS
notes: as for B1
B6: Nb_An-R4.71 (VHH)
VHH: QVQLQESGGGLVQPGGSLRLSCAASGFILNYATIAWFRQAPGKEREGVSCISSAFNTNYADSVKGRFAISRDNAKNTVYLQMNSLKPEDTAVYYCAATFGGTSYCSLRPDSSVPYDTWGQGTQVTVSS
notes: as for B1
B7: Nb_An-R4.11 (VHH)
VHH: QVQLQESGGGLVQPGGSLRLSCEGSGFILGYYTIGWFRQAPGKEREGVSCMNSSGRTKYADSVKGRFTISRDNAKNTVYLQMNSLKPEDRAVYFCAADLINLCDSSWLRDGMNYWGKGTQVTVSS
notes: as for B1
B8: Nb_An-R3.68 (VHH)
VHH: QVQLQESGGGLVQPGGSLRLSCAASGGTLSYYAVGWFRQAPGKEREAVSSIRSGGGITVYADSVKGRFTISRDNKKNTVYLQMNGLKPEDTAVYYCAAGLWRWPDHNMLVSGNYDYWGQGTQVTVSS
notes: as for B1
B9: Nb_An33hum1 (VHH)
VHH: DVQLVESGGGSVQAGGSLRLSCAVSGSTYSPCTTGWVRQAPGKEREWVSSISSPGTIYYQDSVKGRFTISRDNAKNTVYLQMNSLQREDTGMYYCQIQCGVRSIREYWGQGTQVTVSS
B10: Nb_An33mut1 (VHH)
VHH: DVQLVESGGGSVQAGGSLRLSCAVSGRALSPCTTGWYRQAPGKEREWVSSISSPGTIYYQDSVKGRFTISRDNAKNTVYLQMNSLQREDTGMYYCQIQCGVRSIREYWGQGTQVTVSS
notes: Conjugated with Alexa Fluor 488 for flow cytometry; source: E. coli WK6, purified (Ni-NTA, Superdex 75 gel filtration)
B11: Nanobody 33 (Nb_An33), wildtype (VHH)
VHH: DVQLVESGGGSVQAGGSLRLSCAVSGSTYSPCTTGWYRQAPGKEREWVSSISSPGTIYYQDSVKGRFTISRDNAKNTVYLQMNSLQREDTGMYYCQIQCGVRSIREYWGQGTQVTVSS
B12: Nb_An33hum3 (VHH)
VHH: DVQLVESGGGSVQAGGSLRLSCAVSGSTYSPCTTGWYRQAPGKGLEWVSSISSPGTIYYQDSVKGRFTISRDNAKNTVYLQMNSLQREDTGMYYCQIQCGVRSIREYWGQGTQVTVSS
B13: Nb_An33mut3 (VHH)
VHH: DVQLVESGGGSVQAGGSLRLSCAVSGSTYSPCTTGWYRQAPGKEREWVSSISSPGTIYYQDSVKGRFTISRDNAKNTVYLQMNSLQREDTGMYYCQIQCGNDCILEYWGQGTQVTVSS
notes: as for B10
B14: Nb_An33hum2 (VHH)
VHH: DVQLVESGGGSVQAGGSLRLSCAVSGSTYSPCTTGWVRQAPGKGLEWVSSISSPGTIYYQDSVKGRFTISRDNAKNTVYLQMNSLQREDTGMYYCQIQCGVRSIREYWGQGTQVTVSS
B15: Nb_An33mut2 (VHH)
VHH: DVQLVESGGGSVQAGGSLRLSCAVSGSTYSPCTTGWYRQAPGKEREWVSSISSPGTIYYQDSVKGRFTISRDNAKNTVYLQMNSLQREDTGMYYCQIQCGFVNINEYWGQGTQVTVSS
notes: as for B10

Experiments:
[1] = target: T2, Variant-specific Surface Glycoprotein (VSG) on live bloodstream form T. b. brucei AnTat1.1 (Trypanosoma brucei brucei AnTat1.1, UniProt P06015); assay: cell-based or functional assay
[2] = target: T3, soluble form of the Variant-specific Surface Glycoprotein (sVSG) of T. b. brucei AnTat1.1 (Trypanosoma brucei brucei AnTat1.1, UniProt P06015); assay: SPR; BIAcore T100; 1000-1500 RU soluble AnTat1.1 VSG amine-coupled on a CM5 chip; Nanobody 500 to 7.8 nM at 30 µl/min in HBS (10 mM Hepes pH 7.5, 150 mM NaCl, 3.5 mM EDTA, 0.005% Tween-20); 1:1 binding model with local Rmax; conditions: both partners purified
T3 construct: Variant-specific Surface Glycoprotein (VSG) of Trypanosoma brucei brucei AnTat1.1, soluble form (sVSG); Glycoprotein; amine-coupled to a CM5 chip for SPR; also called AnTat1.1 sVSG; soluble AnTat1.1 VSG

[3] = target: T3, soluble form of the Variant-specific …; assay: as above; conditions: both partners purified; remark: listed apart in the source
[4] = target: T2, Variant-specific Surface Glycoprotein …; assay: cell-based or functional assay; remark: listed apart in the source
[5] = target: T1, Variant-specific Surface Glycoprotein (VSG) on live bloodstream form T. b. brucei AnTat1.1 (Trypanosoma brucei brucei AnTat1.1 (endogenous in the parasites))
[6] = target: T3, soluble form of the Variant-specific …; assay: SPR; BIAcore T100; 1000-1500 RU soluble AnTat1.1 VSG amine-coupled on a CM5 chip; Nanobody 500 to 7.8 nM at 30 µl/min in HBS (10 mM Hepes pH 7.5, 150 mM NaCl, 3.5 mM EDTA, 0.005% Tween-20); 1:1 binding model with local Rmax; conditions: both partners purified; remark: listed apart in the source
[7] = target: T2, Variant-specific Surface Glycoprotein …; assay: cell-based or functional assay; remark: listed apart in the source

| Binder | trypanotoxic activity (% relative to a non-trypanosome specific Nb), 10 µg/ml Nb, 18 h, 37°C, HMI-9/10% FBS [1] | Kd [2] | Kd [6] | koff [6] | kon [6] | also measured |
| --- | --- | --- | --- | --- | --- | --- |
| B1 | > 80% | 5 nM |  |  |  |  |
| B2 | > 80% | 5 nM |  |  |  |  |
| B3 | > 80% | 6 nM |  |  |  |  |
| B4 | > 80% | 11 nM |  |  |  |  |
| B5 | > 80% | 5 nM |  |  |  |  |
| B6 | > 80% | 7 nM |  |  |  |  |
| B7 | > 80% | 35 nM |  |  |  |  |
| B8 |  | 12 nM |  |  |  | Kd [3]: 9 nM; trypanotoxic activity (% relative to a non-trypanosome specific Nb), 10 and 20 µg/ml Nb, 18 h, 37°C; value at 20 µg/ml [4]: > 95% |
| B9 |  |  | 1100 nM | 0.264 s⁻¹ | 243000 M⁻¹ s⁻¹ | Trypanotoxic activity (%), 18 h incubation at 37°C with 20 µg/ml Nb [5]: 0% |
| B10 |  |  | 89 nM | 0.042 s⁻¹ | 467000 M⁻¹ s⁻¹ | Trypanotoxic activity (%), 18 h incubation at 37°C with 20 µg/ml Nb [7]: 33% |
| B11 |  |  | 28 nM | 0.021 s⁻¹ | 741000 M⁻¹ s⁻¹ | Trypanotoxic activity (%), 18 h incubation at 37°C with 20 µg/ml Nb [5]: 73% |
| B12 |  |  | 23.5 nM | 0.016 s⁻¹ | 702000 M⁻¹ s⁻¹ | Trypanotoxic activity (%), 18 h incubation at 37°C with 20 µg/ml Nb [5]: 57% |
| B13 |  |  | 197 nM | 0.066 s⁻¹ | 336000 M⁻¹ s⁻¹ | Trypanotoxic activity (%), 18 h incubation at 37°C with 20 µg/ml Nb [7]: 24% |
| B14 |  |  | 540 nM | 0.15 s⁻¹ | 291000 M⁻¹ s⁻¹ | Trypanotoxic activity (%), 18 h incubation at 37°C with 20 µg/ml Nb [5]: 0% |
| B15 |  |  | 723 nM | 0.227 s⁻¹ | 314000 M⁻¹ s⁻¹ | Trypanotoxic activity (%), 18 h incubation at 37°C with 20 µg/ml Nb [7]: 4% |
